Test results taken from patent US20160263155A1, “T CELL RECEPTORS DIRECTED AGAINST THE PREFERENTIALLY EXPRESSED ANTIGEN OF MELANOMA AND USES THEREOF” (LEIDEN UNIVERSITY MEDICAL CENTER, priority 2015, published 2016).
Residue numbers refer to the chain shown, from its start. Numbers in names are those of the source.

B1: ^402GCFNF^406ISAQT: Caspase-9 homodimerization domain mutant (SEQ ID NOS 95 and 96) (Casp-10) (protein, UniProt P55211 1-416, looked up, variant G402I C403S F404A N405Q F406T)
chain: MDEADRRLLRRCRLRLVEELQVDQLWDALLSRELFRPHMIEDIQRAGSGSRRDQARQLIIDLETRGSQALPLFISCLEDTGQDMLASFLRTNRQAAKLSKPTLENLTPVVLRPEIRKPEVLRPETPRPVDIGSGGFGDVGALESLRGNADLAYILSMEPCGHCLIINNVNFCRESGLRTRTGSNIDCEKLRRRFSSLHFMVEVKGDLTAKKMVLALLELAQQDHGALDCCVVVILSHGCQASHLQFPGAVYGTDGCPVSVEKIVNIFNGTSCPSLGGKPKLFFIQACGGEQKDHGFEVASTSPEDESPGSNPEPDATPFQEGLRTFDQLDAISSLPTPSDIFVSYSTFPGFVSWRDPKSGSWYVETLDDIFEQWAHSEDLQSLLLRVANAVSVKGIYKQMPISAQTLRKKLFFKTS
B2: D330A-S144A (protein)
chain: GFGDVGALEALRGNADLAYILSMEPCGHCLIINNVNFCRESGLRTRTGSNIDCEKLRRRFSSLHFMVEVKGDLTAKKMVLALLELAQQDHGALDCCVVVILSHGCQASHLQFPGAVYGTDGCPVSVEKIVNIFNGTSCPSLGGKPKLFFIQACGGEQKDHGFEVASTSPEDESPGSNPEPDATPFQEGLRTFDQLAAISSLPTPSDIFVSYSTFPGFVSWRDPKSGSWYVETLDDIFEQWAHSEDLQSLLLRVANAVSVKGIYKQMPGCFNFLRKKLFFKTS
B3: D330A-S144D (protein)
chain: B2 chain with A10D
B4: D330A-S183A (protein)
chain: B2 chain with A10S, S49A
B5: D330A-S196A (protein)
chain: B2 chain with A10S, S62A
B6: N405Q-S144A (protein)
chain: B2 chain with A196D, N271Q
B7: N405Q-S144D (protein)
chain: B2 chain with A10D, A196D, N271Q
B8: N405Q-S196D (protein)
chain: B2 chain with A10S, S62D, A196D, N271Q
B9: N405Q-T3175 (protein, UniProt P55211 1-416, looked up, variant N405Q T317S)
chain: B1 chain with T317S, I402G, S403C, A404F, T406F
B10: F404Y (protein)
chain: B2 chain with A10S, A196D, F270Y
B11: F406A (protein)
chain: B2 chain with A10S, A196D, F272A
B12: F406W (protein)
chain: B2 chain with A10S, A196D, F272W
B13: F406Y (protein)
chain: B2 chain with A10S, A196D, F272Y
B14: N405Qco: Caspase-9 mutant (protein, UniProt P55211 1-416, looked up, variant N405Q)
chain: B1 chain with I402G, S403C, A404F, T406F
modifications: codon-optimized
notes: Caspase-9 mutant
B15: D330A (protein)
chain: B2 chain with A10S
B16: D330E (protein)
chain: B2 chain with A10S, A196E
B17: F404T (protein)
chain: B2 chain with A10S, A196D, F270T
B18: S307A (protein)
chain: B2 chain with A10S, S173A, A196D
B19: F404W (protein)
chain: B2 chain with A10S, A196D, F270W
B20: N405F (protein)
chain: B2 chain with A10S, A196D, N271F
B21: F406T (protein)
chain: B2 chain with A10S, A196D, F272T
B22: D315A (protein)
chain: B2 chain with A10S, D181A, A196D
B23: A316G (protein)
chain: B2 chain with A10S, A182G, A196D
B24: F319W (protein)
chain: B2 chain with A10S, F185W, A196D
B25: Y153A (protein)
chain: B2 chain with A10S, Y19A, A196D
B26: Y153F (protein)
chain: B2 chain with A10S, Y19F, A196D
B27: C403A (protein)
chain: B2 chain with A10S, A196D, C269A
B28: ^316ATPF^319AVPI: Caspase-9 mutant (SEQ ID NOS 97 and 98) (SMAC/Diablo) (protein, UniProt P55211 1-416, looked up, variant T317V F319I)
chain: B1 chain with T317V, F319I, I402G, S403C, A404F, Q405N, T406F
B29: N405Q-S144Aco (protein, UniProt P55211 1-416, looked up, variant N405Q S144A)
chain: B1 chain with S144A, I402G, S403C, A404F, T406F
modifications: codon optimized
B30: N405Q-T317Sco (protein, UniProt P55211 1-416, looked up, variant N405Q T317S)
chain: B1 chain with T317S, I402G, S403C, A404F, T406F

tested on: chimeric Caspase-9 polypeptide; test: Caspase mutant classes and basal activity (Table 3); format: cell-based, human; conditions: class heading of Table 3
Sequence (as listed by the source, change not shown): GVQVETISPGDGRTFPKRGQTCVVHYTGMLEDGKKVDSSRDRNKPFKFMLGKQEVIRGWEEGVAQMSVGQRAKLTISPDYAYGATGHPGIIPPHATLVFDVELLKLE

| Molecule | Basal Activity |
| --- | --- |
| B1 | Decreased |
| B2 | Decreased |
| B3 | Decreased |
| B4 | Decreased |
| B5 | Decreased |
| B6 | Decreased |
| B7 | Decreased |
| B8 | Decreased |
| B9 | Decreased |
| B10 | Decreased |
| B11 | Decreased |
| B12 | Decreased |
| B13 | Decreased |
| B14 | Decreased |
| B15 | Decreased |
| B16 | Decreased |
| B17 | Decreased |
| B18 | Decreased |
| B19 | Decreased |
| B20 | Decreased |
| B21 | Decreased |
| B22 | Decreased |
| B23 | Decreased |
| B24 | Decreased |
| B25 | Decreased |
| B26 | Decreased |
| B27 | Similar |
| B28 | Similar |

same assay, conditions: class heading of Table 3; ligand IC50

| Molecule | IC50 |
| --- | --- |
| B1 | higher IC50 |
| B2 | higher IC50 |
| B3 | higher IC50 |
| B4 | higher IC50 |
| B5 | higher IC50 |
| B6 | higher IC50 |
| B7 | higher IC50 |
| B8 | higher IC50 |
| B9 | higher IC50 |
| B10 | higher IC50 |
| B11 | higher IC50 |
| B12 | higher IC50 |
| B13 | higher IC50 |
| B14 | higher IC50 |
| B15 | higher IC50 |
| B16 | higher IC50 |
| B17 | much higher |
| B18 | much higher |
| B19 | much higher |
| B20 | much higher |
| B21 | much higher |
| B22 | much higher |
| B23 | much higher |
| B24 | much higher |
| B25 | much higher |
| B26 | much higher |
| B27 | Similar |
| B28 | Similar |

same assay, conditions: class heading of Table 3; marked *, predicted

| Molecule | Basal Activity |
| --- | --- |
| B29 | Decreased |
| B30 | Decreased |
